{"source": "patent US20240026407A1", "about": "“MODIFICATION OF SAPONINS” (GLAXOSMITHKLINE BIOLOGICALS SA, priority 2020, published 2024)", "molecules": {"B1": {"name": "Variant G4: engineered glucosidase polypeptide, variant of Modestobacter marinus glucosidase SEQ ID No. 262 (protein)", "chain": "MNPASSTRTDTMTDTTARTDSRLTDALAALSLEQKVQLLTGRDYWNTWPIEEIGLRRILVSDGPSGVRGEVWDERDPSLNLPSATALASAWDPDIARRYGAAAAVEARRKGVDVVLGPTINLHRSPLGGRHFEAFSEDPVLTAELAAAYVTGVQDNGVGATPKHYVANDFETDRFTVDVRADERTLRELYLLAFEKAVTEARAWLVMSAYNGINGATATENDLLETPLNSEWGFDGVVVSDWTAVRSLESARSSQDLVMPGPLGPWGDALVEAVRTGAIDESVVDRKVLRILTLAQRVGALEGSPAIDPVWVEDGVALAREAAVEGTVLLENRDELPWDATSLRKVAVIGNNAAAAMTQGGGSANVLPEYTVSPLDGVRAALPDAEVSYSLGAVVQDGLVELPLAELTNPVTGGPGLRARFLTADGAELFGEDRRKSVLVYQGGDAPIAAAATYELTARWTPTESQTVRLGFFCFGAAQLYVDGELLVESDLQPSGTDLGAAFMNPLTASAEVELVAGKPVDVRLVHDLSAKEGFAAHALILQLGTEPAEVDEDALIAEAAEAAEAADVVLVVVGTNSIVESEGYDRESLSLPGRQDDLVRAVVAANPRTVVLVNAGAPVLLPWRDDVAALLLGWFGGQEFGNAVADVLLGVAEPGGRLPTTWPAAEADVPVLSCTPVDGVVEYTEGIHIGYRAWLRSGATPAYWFGSGQGYTCVELTGVEAPSRARPGEIVTVSVEVANRGERDGKQVVQVYAEKPDSTVDRPVRWLVGSAPVRVPAGQTAQVEVAVPTRYLAHWAGGWQYEPGVYRLRVGTTAVELPLETTLEVSA", "modifications": "Seq ID No. 262 with mutations T365N, R357M, A473F, L474C, I475F, F44Y, F442Q, V263L, F541I"}, "B2": {"name": "Variant G1: engineered glucosidase polypeptide, variant of Modestobacter marinus glucosidase SEQ ID No. 262 (protein)", "chain": "MNPASSTRTDTMTDTTARTDSRLTDALAALSLEQKVQLLTGRDFWNTWPIEEIGLRRILVSDGPSGVRGEVWDERDPSLNLPSATALASAWDPDIARRYGAAAAVEARRKGVDVVLGPTINLHRSPLGGRHFEAFSEDPVLTAELAAAYVTGVQDNGVGATPKHYVANDFETDRFTVDVRADERTLRELYLLAFEKAVTEARAWLVMSAYNGINGATATENDLLETPLNSEWGFDGVVVSDWTAVRSLESARSSQDLVMPGPVGPWGDALVEAVRTGAIDESVVDRKVLRILTLAQRVGALEGSPAIDPVWVEDGVALAREAAVEGTVLLENRDELPWDATSLRKVAVIGNNAAAARTQGGGSANVLPEYTVSPLDGVRAALPDAEVSYSLGAVVQDGLVELPLAELTNPVTGGPGLRARFLTADGAELFGEDRRKSVLVYFGGDAPIAAAATYELTARWTPTESQTVRLGFALIGAAQLYVDGELLVESDLQPSGTDLGAAFMNPLTASAEVELVAGKPVDVRLVHDLSAKEGFAAHALFLQLGTEPAEVDEDALIAEAAEAAEAADVVLVVVGTNSIVESEGYDRESLSLPGRQDDLVRAVVAANPRTVVLVNAGAPVLLPWRDDVAALLLGWFGGQEFGNAVADVLLGVAEPGGRLPTTWPAAEADVPVLSCTPVDGVVEYTEGIHIGYRAWLRSGATPAYWFGSGQGYTCVELTGVEAPSRARPGEIVTVSVEVANRGERDGKQVVQVYAEKPDSTVDRPVRWLVGSAPVRVPAGQTAQVEVAVPTRYLAHWAGGWQYEPGVYRLRVGTTAVELPLETTLEVSA", "modifications": "Seq ID No. 262 with mutation T365N"}}, "key": {"[1]": {"test": "Example 8: screening of glucosidase variants for deglycosylation of saponins in crude bark extract (FIOP)", "assay_type": "biochemical, Quillaja saponaria", "conditions": "for Cumulative FIOP (cf WT): estimate; for FIOP: fold improvement over parent", "protocol": "Libraries of genetic variants encoding mutations in the wild type Modestobacter marinus glucosidase (SEQ ID No. 262) were prepared using molecular biology techniques, enzymes were prepared linked to an N-terminally located His-tag. Single monoclonal colonies were grown in 400 ul of expression medium and protein expressed. Cell pellets were lysed in 200 ul of the relevant buffer (Table 16)\nLysate was diluted appropriately in the relevant buffer to allow a lysate loading of the indicated % loading (1% loading corresponds to use of 2 ul original lysate in a 200 ul reaction). In some experiments a rhamnosidase was also present during the screening reaction (and also in controls, negating any impact on results).\nCrude bark extract (CBE) obtained by aqueous extraction of Quillaja saponaria and containing at least 2.80 mg/ml QS-21 (by HPLC-UV). The pH of CBE was adjusted to pH 6 by dropwise addition of 2M NaOH with stirring. The relevant concentration of the relevant glucosidase was added. The appropriate relative volume of pH 6 CBE (160 ul (for 80%) or 150 ul (for 75%)) was added to each well of the reaction plate. The reaction plate was sealed and incubated at the relevant temperature with shaking overnight for between 18 and 22 hours.\nThe reaction plate was quenched by adding 200 uL of MeCN (2% AcOH, 1 mg/mL hexanophenone) to each well of the plates. The quenched reaction plate was re-sealed and incubated at 20 deg C. with shaking for 10 min. The reaction plate was then centrifuged (10 min, 4 degC).\n200 uL was transferred from each well of the quenched plate to the corresponding wells of a fresh 96 well plate and sealed. The plate was analysed by UV HPLC with the method below:\nA negative control (a lysate not expressing test enzymes) and a positive control (expressing the parent comparator—wild type or previous variant as appropriate). Fold improvement over parent (FIOP) for the glucosidase (shorter method) is calculated as follows:\n% right peak=100*right peak area/(right peak area+left peak area)\nAverage % right peak area is calculated for negative controls (per plate) and subtracted from all wells to give the increase in % right peak for each well above average negative control Average increase in % right peak is calculated for positive controls per plate\nFIOP=observed increase in % right peak divided by average positive control increase"}, "[2]": {"test": "Example 10: deglucosylation of saponins in crude bark extract (50%) using WT and engineered glucosidases G1 to G5", "assay_type": "biochemical, Quillaja saponaria", "conditions": "7 h, 50% CBE, 35 degC; for % Right Peak: starting CBE 26; for % Left Peak: starting CBE 30; for % Middle Peak: starting CBE 44", "protocol": "Lyophilised powders from clarified cell lysate expressing glucosidases (from Example 8 WT glucosidase and engineered glucosidase polypeptides G1 to G5) and rhamnosidases (from Example 9 WT rhamnosidase and engineered rhamnosidase polypeptides R1 to R5) were dissolved in 200 mM sodium acetate aqueous solution at pH 5.8 to prepare the enzyme solutions at 4 fold the final reaction concentration as shown in Tables 19 and 20.\nEach glucosidase solution was combined with an equal volume of 200 mM sodium acetate aqueous solution at pH 5.8 and separately with an equal volume of 200 mM sodium acetate aqueous solution at pH 5.8 containing 2 mg/ml rhamnosidase R5. This is a sufficient loading of rhamnosidase to effect complete hydrolysis of the relevant rhamnose moiety within 4 hours.\nCBE was adjusted to pH of 6.0 to 6.2 with 2M sodium hydroxide and an equal volume added to the enzyme solution to prepare the reaction mix (i.e. 50% CBE concentration in reaction mix) and the concentration of glucosidase and/or rhamnosidase is shown in Tables 19 and 20. The reaction mix was heated to 35 degC for the time indicated in Tables 19 and 20, after which the reaction was quenched by addition of an equal volume of MeCN containing 2% acetic acid and shaken at room temperature for 10 mins prior to centrifugation (10 min, 4 degC) to remove particulates. Samples were analysed by UV HPLC using method of Experiment 4-4.\nThe change in composition of the Left, Middle and Right peaks is shown in Tables 19 and 20. The composition changes by the action of the enzymes depending on the presence or absence of the partner enzyme. The extent of reaction is proportional to the enzyme concentration and the reaction time under these conditions. The tables show data for enzyme concentrations and the reaction times providing for equivalent extents of reaction. The improvement resulting from the mutations introduced for each variant is equal to the fold change in enzyme concentration×time (i.e. fold improvement=(enzyme concentration×time) for preceding variant÷(enzyme concentration×time) for later variant). A cumulative fold improvement over the original enzyme variant is calculated by the product of the individual fold improvements."}, "[3]": {"conditions": "screen temp 35, pH 6, lysate loading 0.28%, CBE loading 75%, 100 mM Sodium acetate, Rham Present"}, "[4]": {"conditions": "glucosidase 0.39 mg/ml + rhamnosidase R5 0.5 mg/ml"}, "[5]": {"conditions": "glucosidase 0.39 mg/ml, no rhamnosidase"}, "[6]": {"conditions": "screen temp 35, pH 6, lysate loading 20%, CBE loading 80%, 100 mM Potassium phosphate, Rham None"}, "[7]": {"conditions": "glucosidase 6.25 mg/ml + rhamnosidase R5 0.5 mg/ml"}, "[8]": {"conditions": "glucosidase 6.25 mg/ml, no rhamnosidase"}}, "data": [{"molecule": "B1", "values": [{"measurement": "Cumulative FIOP (cf WT)", "setting": "[1]; [3]", "result": 300}, {"measurement": "FIOP", "setting": "[1]; [3]", "result": 2.4}, {"measurement": "% change in Left Peak", "setting": "[2]; [4]", "result": "−28", "unit": "%"}, {"measurement": "% change in Middle Peak", "setting": "[2]; [4]", "result": "−79", "unit": "%"}, {"measurement": "% change in Right Peak", "setting": "[2]; [4]", "result": 267, "unit": "%"}, {"measurement": "Cumulative Fold improvement in primary enzyme loading × time", "setting": "[2]; [4]", "result": 128}, {"measurement": "Fold improvement in primary enzyme loading × time", "setting": "[2]; [4]", "result": 2.0}, {"measurement": "% Right Peak", "setting": "[2]; [4]", "result": 69, "unit": "%"}, {"measurement": "% Left Peak", "setting": "[2]; [4]", "result": 22, "unit": "%"}, {"measurement": "% Middle Peak", "setting": "[2]; [4]", "result": 9, "unit": "%"}, {"measurement": "% change in Left Peak", "setting": "[2]; [5]", "result": "−22", "unit": "%"}, {"measurement": "% change in Middle Peak", "setting": "[2]; [5]", "result": "−49", "unit": "%"}, {"measurement": "% change in Right Peak", "setting": "[2]; [5]", "result": 208, "unit": "%"}, {"measurement": "Cumulative Fold improvement in primary enzyme loading × time", "setting": "[2]; [5]", "result": 128}, {"measurement": "Fold improvement in primary enzyme loading × time", "setting": "[2]; [5]", "result": 2.0}, {"measurement": "% Right Peak", "setting": "[2]; [5]", "result": 54, "unit": "%"}, {"measurement": "% Left Peak", "setting": "[2]; [5]", "result": 23, "unit": "%"}, {"measurement": "% Middle Peak", "setting": "[2]; [5]", "result": 23, "unit": "%"}]}, {"molecule": "B2", "values": [{"measurement": "Cumulative FIOP (cf WT)", "setting": "[1]; [6]", "result": 5}, {"measurement": "FIOP", "setting": "[1]; [6]", "result": 5}, {"measurement": "% change in Left Peak", "setting": "[2]; [7]", "result": "−39", "unit": "%"}, {"measurement": "% change in Middle Peak", "setting": "[2]; [7]", "result": "−64", "unit": "%"}, {"measurement": "% change in Right Peak", "setting": "[2]; [7]", "result": 253, "unit": "%"}, {"measurement": "Cumulative Fold improvement in primary enzyme loading × time", "setting": "[2]; [7]", "result": 8}, {"measurement": "Fold improvement in primary enzyme loading × time", "setting": "[2]; [7]", "result": 8.0}, {"measurement": "% Right Peak", "setting": "[2]; [7]", "result": 66, "unit": "%"}, {"measurement": "% Left Peak", "setting": "[2]; [7]", "result": 18, "unit": "%"}, {"measurement": "% Middle Peak", "setting": "[2]; [7]", "result": 16, "unit": "%"}, {"measurement": "% change in Left Peak", "setting": "[2]; [8]", "result": "−8", "unit": "%"}, {"measurement": "% change in Middle Peak", "setting": "[2]; [8]", "result": "−59", "unit": "%"}, {"measurement": "% change in Right Peak", "setting": "[2]; [8]", "result": 209, "unit": "%"}, {"measurement": "Cumulative Fold improvement in primary enzyme loading × time", "setting": "[2]; [8]", "result": 8}, {"measurement": "Fold improvement in primary enzyme loading × time", "setting": "[2]; [8]", "result": 8.0}, {"measurement": "% Right Peak", "setting": "[2]; [8]", "result": 54, "unit": "%"}, {"measurement": "% Left Peak", "setting": "[2]; [8]", "result": 28, "unit": "%"}, {"measurement": "% Middle Peak", "setting": "[2]; [8]", "result": 18, "unit": "%"}]}]}
